Laboratory results taken from patent US20140274782A1, “AFFINITY REAGENTS AND METHODS FOR DETECTION, PURIFICATION, AND PROTEOMIC ANALYSIS OF METHYLATED PROTEINS” (The Board of Trustees of the Leland Stanford Junior …, priority 2013, published 2014).

Assays:
3×MBT domain of L3MBTL1 = experiment: Triple SILAC pull-down, 3xMBT/3xMBTD355N ratio (cytoplasmic, nuclear and chromatin fractions of 293T cells); format: binding, human; conditions: SILAC ratio 3xMBT vs 3xMBTD355N pull-down, 293T cells, all values in log base 2; for 3xMBT/D355N UNC Heavy: experiment with UNC0638 in heavy SILAC media; for 3xMBT/D355N UNC Light: experiment with UNC0638 in light SILAC media;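 on all read-outs here: proteins quantified with MaxQuant, requiring at least two unique peptides and quantification in both label directions, normalized to the mean of proteins from a digested loading control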
G9a and GLP = target: T1, G9a and GLP (Homo sapiens, UniProt Q96KQ7+Q9H9B1); experiment: Triple SILAC pull-down after UNC0638 treatment of 293T cells, DMSO/UNC0638 ratio of protein captured by 3×MBT; format: cell-based; parameters: endogenous in cells; host or cells: HEK 293T; conditions: all values in log base 2; for Relative to UNC0638 UNC Heavy / Relative to UNC0638 UNC Light: SILAC ratio DMSO relative to UNC0638, pull-down with 3xMBT; for Relative to UNC0638 UNC Heavy: UNC0638 in heavy SILAC media; for Relative to UNC0638 UNC Light: UNC0638 in light SILAC media; for Relative to UNC0638 Average: average of UNC Light and UNC Heavy experiments;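 on all read-outs here: mass spectrometry (Q-Exactive) SILAC quantitation, DMSO/UNC0638 ratio computed after subtracting 3×MBTD355N mutant pull-down background, only proteins with at least twofold 3×MBT over mutant signal considered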
T1 sequence (Q96KQ7 2-1210 limits assumed): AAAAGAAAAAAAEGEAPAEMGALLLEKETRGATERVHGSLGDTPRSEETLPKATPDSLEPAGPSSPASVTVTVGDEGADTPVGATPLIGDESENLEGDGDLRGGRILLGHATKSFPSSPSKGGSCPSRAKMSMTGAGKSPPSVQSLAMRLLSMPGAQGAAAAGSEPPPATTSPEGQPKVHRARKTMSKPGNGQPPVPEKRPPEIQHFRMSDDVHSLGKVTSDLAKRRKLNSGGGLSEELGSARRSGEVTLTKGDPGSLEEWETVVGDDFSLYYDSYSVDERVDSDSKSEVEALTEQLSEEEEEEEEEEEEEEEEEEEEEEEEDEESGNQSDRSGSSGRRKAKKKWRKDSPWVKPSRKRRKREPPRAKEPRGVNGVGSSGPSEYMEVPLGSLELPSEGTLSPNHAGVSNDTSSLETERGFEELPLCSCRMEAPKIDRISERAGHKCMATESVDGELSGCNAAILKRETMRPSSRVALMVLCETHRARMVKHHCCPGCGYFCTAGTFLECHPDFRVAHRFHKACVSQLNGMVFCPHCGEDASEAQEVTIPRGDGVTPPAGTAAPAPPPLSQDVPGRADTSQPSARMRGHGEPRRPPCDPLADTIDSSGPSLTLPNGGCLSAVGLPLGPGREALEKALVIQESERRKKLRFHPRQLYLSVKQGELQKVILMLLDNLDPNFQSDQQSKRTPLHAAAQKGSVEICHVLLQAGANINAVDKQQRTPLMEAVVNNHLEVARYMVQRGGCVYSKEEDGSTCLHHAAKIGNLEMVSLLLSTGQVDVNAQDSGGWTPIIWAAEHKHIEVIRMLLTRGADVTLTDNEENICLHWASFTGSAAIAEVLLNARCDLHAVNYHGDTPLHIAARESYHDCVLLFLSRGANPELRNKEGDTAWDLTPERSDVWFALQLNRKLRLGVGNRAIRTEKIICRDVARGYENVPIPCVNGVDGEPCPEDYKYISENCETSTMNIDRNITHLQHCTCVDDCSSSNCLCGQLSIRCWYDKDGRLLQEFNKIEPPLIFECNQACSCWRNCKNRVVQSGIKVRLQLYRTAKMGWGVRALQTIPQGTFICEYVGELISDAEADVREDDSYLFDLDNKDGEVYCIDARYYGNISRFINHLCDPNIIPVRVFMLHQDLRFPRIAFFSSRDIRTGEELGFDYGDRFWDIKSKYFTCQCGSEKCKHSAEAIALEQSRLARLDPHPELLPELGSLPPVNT
T1 sequence (Q9H9B1 2-1298 limits assumed): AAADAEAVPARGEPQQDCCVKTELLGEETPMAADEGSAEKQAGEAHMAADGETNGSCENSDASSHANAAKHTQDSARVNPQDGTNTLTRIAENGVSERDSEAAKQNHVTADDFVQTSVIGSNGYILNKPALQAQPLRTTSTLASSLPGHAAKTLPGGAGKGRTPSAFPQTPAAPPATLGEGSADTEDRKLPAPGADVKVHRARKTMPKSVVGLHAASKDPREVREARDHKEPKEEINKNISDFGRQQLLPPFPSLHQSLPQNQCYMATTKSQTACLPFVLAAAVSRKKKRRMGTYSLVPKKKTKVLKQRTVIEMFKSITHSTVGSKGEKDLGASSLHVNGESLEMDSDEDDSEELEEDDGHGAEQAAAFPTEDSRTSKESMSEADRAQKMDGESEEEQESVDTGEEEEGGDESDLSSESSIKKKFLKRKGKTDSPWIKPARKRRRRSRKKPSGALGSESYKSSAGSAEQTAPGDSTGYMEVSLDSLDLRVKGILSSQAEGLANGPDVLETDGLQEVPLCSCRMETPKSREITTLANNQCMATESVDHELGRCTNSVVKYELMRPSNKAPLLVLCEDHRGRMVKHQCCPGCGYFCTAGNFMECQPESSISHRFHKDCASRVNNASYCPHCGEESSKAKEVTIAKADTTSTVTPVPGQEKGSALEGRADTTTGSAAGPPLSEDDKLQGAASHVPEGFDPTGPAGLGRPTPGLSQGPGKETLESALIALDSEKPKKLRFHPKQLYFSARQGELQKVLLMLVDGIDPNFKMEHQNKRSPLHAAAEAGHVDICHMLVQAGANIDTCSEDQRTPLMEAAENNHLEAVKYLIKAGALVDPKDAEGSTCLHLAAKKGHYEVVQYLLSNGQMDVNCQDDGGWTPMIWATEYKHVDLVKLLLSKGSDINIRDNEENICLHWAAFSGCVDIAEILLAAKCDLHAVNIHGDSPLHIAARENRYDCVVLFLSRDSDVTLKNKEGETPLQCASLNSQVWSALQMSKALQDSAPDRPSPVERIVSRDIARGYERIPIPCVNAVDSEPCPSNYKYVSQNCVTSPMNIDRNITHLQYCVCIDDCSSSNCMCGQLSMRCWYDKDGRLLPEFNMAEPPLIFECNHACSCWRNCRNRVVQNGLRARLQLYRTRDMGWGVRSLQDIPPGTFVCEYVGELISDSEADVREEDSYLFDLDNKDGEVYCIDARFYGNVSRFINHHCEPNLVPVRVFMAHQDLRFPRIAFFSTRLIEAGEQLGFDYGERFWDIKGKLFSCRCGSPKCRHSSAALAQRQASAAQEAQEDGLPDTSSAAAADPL

Molecule	3xMBT/D355N UNC Heavy (3×MBT domain of L3MBTL1) [log base 2]	3xMBT/D355N UNC Light (3×MBT domain of L3MBTL1) [log base 2]	Relative to UNC0638 UNC Heavy (G9a and GLP) [log base 2]	Relative to UNC0638 UNC Light (G9a and GLP) [log base 2]	Relative to UNC0638 Average (G9a and GLP) [log base 2]
BAZ1B (protein, UniProt Q9UIG0 1-1483, looked up) Tyrosine-protein kinase BAZ1B: MAPLLGRKPFPLVKPLPGEEPLFTIPHTQEAFRTREEYEARLERYSERIWTCKSTGSSQLTHKEAWEEEQEVAELLKEEFPAWYEKLVLEMVHHNTASLEKLVDTAWLEIMTKYAVGEECDFEVGKEKMLKVKIVKIHPLEKVDEEATEKKSDGACDSPSSDKENSSQIAQDHQKKETVVKEDEGRRESINDRARRSPRKLPTSLKKGERKWAPPKFLPHKYDVKLQNEDKIISNVPADSLIRTERPPNKEIVRYFIRHNALRAGTGENAPWVVEDELVKKYSLPSKFSDFLLDPYKYMTLNPSTKRKNTGSPDRKPSKKSKTDNSSLSSPLNPKLWCHVHLKKSLSGSPLKVKNSKNSKSPEEHLEEMMKMMSPNKLHTNFHIPKKGPPAKKPGKHSDKPLKAKGRSKGILNGQKSTGNSKSPKKGLKTPKTKMKQMTLLDMAKGTQKMTRAPRNSGGTPRTSSKPHKHLPPAALHLIAYYKENKDREDKRSALSCVISKTARLLSSEDRARLPEELRSLVQKRYELLEHKKRWASMSEEQRKEYLKKKREELKKKLKEKAKERREKEMLERLEKQKRYEDQELTGKNLPAFRLVDTPEGLPNTLFGDVAMVVEFLSCYSGLLLPDAQYPITAVSLMEALSADKGGFLYLNRVLVILLQTLLQDEIAEDYGELGMKLSEIPLTLHSVSELVRLCLRRSDVQEESEGSDTDDNKDSAAFEDNEVQDEFLEKLETSEFFELTSEEKLQILTALCHRILMTYSVQDHMETRQQMSAELWKERLAVLKEENDKKRAEKQKRKEMEAKNKENGKVENGLGKTDRKKEIVKFEPQVDTEAEDMISAVKSRRLLAIQAKKEREIQEREMKVKLERQAEEERIRKHKAAAEKAFQEGIAKAKLVMRRTPIGTDRNHNRYWLFSDEVPGLFIEKGWVHDSIDYRFNHHCKDHTVSGDEDYCPRSKKANLGKNASMNTQHGTATEVAVETTTPKQGQNLWFLCDSQKELDELLNCLHPQGIRESQLKERLEKRYQDIIHSIHLARKPNLGLKSCDGNQELLNFLRSDLIEVATRLQKGGLGYVEETSEFEARVISLEKLKDFGECVIALQASVIKKFLQGFMAPKQKRRKLQSEDSAKTEEVDEEKKMVEEAKVASALEKWKTAIREAQTFSRMHVLLGMLDACIKWDMSAENARCKVCRKKGEDDKLILCDECNKAFHLFCLRPALYEVPDGEWQCPACQPATARRNSRGRNYTEESASEDSEDDESDEEEEEEEEEEEEEDYEVAGLRLRPRKTIRGKHSVIPPAARSGRRPGKKPHSTRRSQPKAPPVDDAEVDELVLQTKRSSRRQSLELQKCEEILHKIVKYRFSWPFREPVTRDEAEDYYDVITHPMDFQTVQNKCSCGSYRSVQEFLTDMKQVFTNAEVYNCRGSHVLSCMVKTEQCLVALLHKHLPGHPYVRRKRKKFPDRLAEDEGDSEPEAVGQSRGRRQKK	1.37	0.19	0.14	−0.38	−0.12
SHKBP1 (protein, UniProt Q8TBC3 2-707, looked up) SH3KBP1-binding protein 1: AAAATAAEGVPSRGPPGEVIHLNVGGKRFSTSRQTLTWIPDSFFSSLLSGRISTLKDETGAIFIDRDPTVFAPILNFLRTKELDPRGVHGSSLLHEAQFYGLTPLVRRLQLREELDRSSCGNVLFNGYLPPPVFPVKRRNRHSLVGPQQLGGRPAPVRRSNTMPPNLGNAGLLGRMLDEKTPPSPSGQPEEPGMVRLVCGHHNWIAVAYTQFLVCYRLKEASGWQLVFSSPRLDWPIERLALTARVHGGALGEHDKMVAAATGSEILLWALQAEGGGSEIGVFHLGVPVEALFFVGNQLIATSHTGRIGVWNAVTKHWQVQEVQPITSYDAAGSFLLLGCNNGSIYYVDVQKFPLRMKDNDLLVSELYRDPAEDGVTALSVYLTPKTSDSGNWIEIAYGTSSGGVRVIVQHPETVGSGPQLFQTFTVHRSPVTKIMLSEKHLISVCADNNHVRTWSVTRFRGMISTQPGSTPLASFKILALESADGHGGCSAGNDIGPYGERDDQQVFIQKVVPSASQLFVRLSSTGQRVCSVRSVDGSPTTAFTVLECEGSRRLGSRPRRYLLTGQANGSLAMWDLTTAMDGLGQAPAGGLTEQELMEQLEHCELAPPAPSAPSWGCLPSPSPRISLTSLHSASSNTSLSGHRGSPSPPQAEARRRGGGSFVERCQELVRSGPDLRRPPTPAPWPSSGLGTPLTPPKMKLNETSF	2.90	2.73	0.71	−0.94	−0.12
CTNND1 (protein, UniProt O60716 1-968, looked up) Catenin delta-1: MDDSEVESTASILASVKEQEAQFEKLTRALEEERRHVSAQLERVRVSPQDANPLMANGTLTRRHQNGRFVGDADLERQKFSDLKLNGPQDHSHLLYSTIPRMQEPGQIVETYTEEDPEGAMSVVSVETSDDGTTRRTETTVKKVVKTVTTRTVQPVAMGPDGLPVDASSVSNNYIQTLGRDFRKNGNGGPGPYVGQAGTATLPRNFHYPPDGYSRHYEDGYPGGSDNYGSLSRVTRIEERYRPSMEGYRAPSRQDVYGPQPQVRVGGSSVDLHRFHPEPYGLEDDQRSMGYDDLDYGMMSDYGTARRTGTPSDPRRRLRSYEDMIGEEVPSDQYYWAPLAQHERGSLASLDSLRKGGPPPPNWRQPELPEVIAMLGFRLDAVKSNAAAYLQHLCYRNDKVKTDVRKLKGIPVLVGLLDHPKKEVHLGACGALKNISFGRDQDNKIAIKNCDGVPALVRLLRKARDMDLTEVITGTLWNLSSHDSIKMEIVDHALHALTDEVIIPHSGWEREPNEDCKPRHIEWESVLTNTAGCLRNVSSERSEARRKLRECDGLVDALIFIVQAEIGQKDSDSKLVENCVCLLRNLSYQVHREIPQAERYQEAAPNVANNTGPHAASCFGAKKGKDEWFSRGKKPIEDPANDTVDFPKRTSPARGYELLFQPEVVRIYISLLKESKTPAILEASAGAIQNLCAGRWTYGRYIRSALRQEKALSAIADLLTNEHERVVKAASGALRNLAVDARNKELIGKHAIPNLVKNLPGGQQNSSWNFSEDTVISILNTINEVIAENLEAAKKLRETQGIEKLVLINKSGNRSEKEVRAAALVLQTIWGYKELRKPLEKEGWKKSDFQVNLNNASRSQSSHSYDDSTLPLIDRNQKSDKKPDREEIQMSNMGSNTKSLDNNYSTPNERGDHNRTLDRSGDLGDMEPLKGTTPLMQDEGQESLEEELDVLVLDDEGGQVSYPSMQKI	0.67	2.07		−0.49	−0.49
